According to US20110256140A1 (POMONA RICERCA S R L, published 2011):

Legend:
Test in all cases: binding of Fab e20 to H77 E1E2 alanine mutants; method not stated
[1] = biological target: H77 E1E2 mutant G530A (Hepatitis C virus genotype 1a, H77) (UniProt P27958)
[2] = biological target: H77 E1E2 mutant I413A (Hepatitis C virus genotype 1a, H77) (UniProt P27958)
[3] = biological target: H77 E1E2 mutant T414A (Hepatitis C virus genotype 1a, H77) (UniProt P27958)
[4] = biological target: H77 E1E2 mutant Y486A (Hepatitis C virus genotype 1a, H77) (UniProt P27958)
[5] = biological target: T1, H77 E1E2 mutant Q412A (Hepatitis C virus genotype 1a, H77, UniProt P27958 384-746)
T1 construct: Co-expressed with E1; P27958 is the whole polyprotein

[6] = biological target: T2, H77 E1E2 mutant N415A (Hepatitis C virus genotype 1a, H77, UniProt P27958 384-746)
T2 construct: Co-expressed with E1; P27958 is the whole polyprotein

[7] = biological target: T3, H77 E1E2 mutant T416A (Hepatitis C virus genotype 1a, H77, UniProt P27958 384-746)
T3 construct: Co-expressed with E1; P27958 is the whole polyprotein

[8] = biological target: T4, H77 E1E2 mutant N417A (Hepatitis C virus genotype 1a, H77, UniProt P27958 384-746)
T4 construct: Co-expressed with E1; P27958 is the whole polyprotein

[9] = biological target: T5, H77 E1E2 mutant G418A (Hepatitis C virus genotype 1a, H77, UniProt P27958 384-746)
T5 construct: Co-expressed with E1; P27958 is the whole polyprotein

[10] = biological target: T6, H77 E1E2 mutant S419A (Hepatitis C virus genotype 1a, H77, UniProt P27958 384-746)
T6 construct: Co-expressed with E1; P27958 is the whole polyprotein

[11] = biological target: T7, H77 E1E2 mutant W420A (Hepatitis C virus genotype 1a, H77, UniProt P27958 384-746)
T7 construct: Co-expressed with E1; P27958 is the whole polyprotein

[12] = biological target: T8, H77 E1E2 mutant H421A (Hepatitis C virus genotype 1a, H77, UniProt P27958 384-746)
T8 construct: Co-expressed with E1; P27958 is the whole polyprotein

[13] = biological target: T9, H77 E1E2 mutant I422A (Hepatitis C virus genotype 1a, H77, UniProt P27958 384-746)
T9 construct: Co-expressed with E1; P27958 is the whole polyprotein

[14] = biological target: T10, H77 E1E2 mutant N423A (Hepatitis C virus genotype 1a, H77, UniProt P27958 384-746)
T10 construct: Co-expressed with E1; P27958 is the whole polyprotein

[15] = biological target: T11, H77 E1E2 mutant R483A (Hepatitis C virus genotype 1a, H77, UniProt P27958 384-746)
T11 construct: Co-expressed with E1; P27958 is the whole polyprotein

[16] = biological target: T12, H77 E1E2 mutant P484A (Hepatitis C virus genotype 1a, H77, UniProt P27958 384-746)
T12 construct: Co-expressed with E1; P27958 is the whole polyprotein

[17] = biological target: T13, H77 E1E2 mutant W487A (Hepatitis C virus genotype 1a, H77, UniProt P27958 384-746)
T13 construct: Co-expressed with E1; P27958 is the whole polyprotein

[18] = biological target: T14, H77 E1E2 mutant H488A (Hepatitis C virus genotype 1a, H77, UniProt P27958 384-746)
T14 construct: Co-expressed with E1; P27958 is the whole polyprotein

[19] = biological target: T15, H77 E1E2 mutant Y527A (Hepatitis C virus genotype 1a, H77, UniProt P27958 384-746)
T15 construct: Co-expressed with E1; P27958 is the whole polyprotein

[20] = biological target: T16, H77 E1E2 mutant N532A (Hepatitis C virus genotype 1a, H77, UniProt P27958 384-746)
T16 construct: Co-expressed with E1; P27958 is the whole polyprotein

[21] = biological target: T17, H77 E1E2 mutant D533A (Hepatitis C virus genotype 1a, H77, UniProt P27958 384-746)
T17 construct: Co-expressed with E1; P27958 is the whole polyprotein

[22] = biological target: T18, H77 E1E2 mutant T534A (Hepatitis C virus genotype 1a, H77, UniProt P27958 384-746)
T18 construct: Co-expressed with E1; P27958 is the whole polyprotein

[23] = biological target: T19, H77 E1E2 mutant D535A (Hepatitis C virus genotype 1a, H77, UniProt P27958 384-746)
T19 construct: Co-expressed with E1; P27958 is the whole polyprotein

[24] = biological target: T20, H77 E1E2 mutant N540A (Hepatitis C virus genotype 1a, H77, UniProt P27958 384-746)
T20 construct: Co-expressed with E1; P27958 is the whole polyprotein

[25] = biological target: T21, H77 E1E2 mutant R543A (Hepatitis C virus genotype 1a, H77, UniProt P27958 384-746)
T21 construct: Co-expressed with E1; P27958 is the whole polyprotein

[26] = biological target: T22, H77 E1E2 mutant P544A (Hepatitis C virus genotype 1a, H77, UniProt P27958 384-746)
T22 construct: Co-expressed with E1; P27958 is the whole polyprotein

[27] = biological target: T23, H77 E1E2 mutant P545A (Hepatitis C virus genotype 1a, H77, UniProt P27958 384-746)
T23 construct: Co-expressed with E1; P27958 is the whole polyprotein

[28] = biological target: T24, H77 E1E2 mutant G547A (Hepatitis C virus genotype 1a, H77, UniProt P27958 384-746)
T24 construct: Co-expressed with E1; P27958 is the whole polyprotein

[29] = biological target: T25, H77 E1E2 mutant W549A (Hepatitis C virus genotype 1a, H77, UniProt P27958 384-746)
T25 construct: Co-expressed with E1; P27958 is the whole polyprotein

[30] = biological target: T26, H77 E1E2 mutant F550A (Hepatitis C virus genotype 1a, H77, UniProt P27958 384-746)
T26 construct: Co-expressed with E1; P27958 is the whole polyprotein

B1: Fab e20 (Fab, V domains shown)
VH: LLEQSGAEVKKPGSSVKVSCKASGDHYGINWVRQAPGQGLEWMGGIIPVFGTTTYAQKFQGRATITADDSTGTAFLELTRLTFDDTAVYFCATPHQLHVLRGGKALSPWDYWGQGT
VL: MAELTQSPATLSVSPGERATLSCRASQSVSSNLAWYQQKRGQAPSLLIYGTSTRATGIPARFSGSGSGTEFTLTISSLQSEDFAVYYCQQYNDWPSTFGQGT
notes: also called e20 antibody fragment
- e20 binding activity (% of wild-type H77) (% of wild-type H77) [1]: 3
- e20 binding activity (% of wild-type H77) (% of wild-type H77) [2]: 100
- e20 binding activity (% of wild-type H77) (% of wild-type H77) [3]: 95
- e20 binding activity (% of wild-type H77) (% of wild-type H77) [4]: 95
- e20 binding activity (% of wild-type H77) [5]: 100 % of wild-type H77
- e20 binding activity (% of wild-type H77) [6]: 98 % of wild-type H77
- e20 binding activity (% of wild-type H77) [7]: 96 % of wild-type H77
- e20 binding activity (% of wild-type H77) [8]: 97 % of wild-type H77
- e20 binding activity (% of wild-type H77) [9]: 100 % of wild-type H77
- e20 binding activity (% of wild-type H77) [10]: 100 % of wild-type H77
- e20 binding activity (% of wild-type H77) [11]: 97 % of wild-type H77
- e20 binding activity (% of wild-type H77) [12]: 100 % of wild-type H77
- e20 binding activity (% of wild-type H77) [13]: 100 % of wild-type H77
- e20 binding activity (% of wild-type H77) [14]: 100 % of wild-type H77
- e20 binding activity (% of wild-type H77) [15]: 100 % of wild-type H77
- e20 binding activity (% of wild-type H77) [16]: 100 % of wild-type H77
- e20 binding activity (% of wild-type H77) [17]: 100 % of wild-type H77
- e20 binding activity (% of wild-type H77) [18]: 100 % of wild-type H77
- e20 binding activity (% of wild-type H77) [19]: 92 % of wild-type H77
- e20 binding activity (% of wild-type H77) [20]: 100 % of wild-type H77
- e20 binding activity (% of wild-type H77) [21]: 100 % of wild-type H77
- e20 binding activity (% of wild-type H77) [22]: 100 % of wild-type H77
- e20 binding activity (% of wild-type H77) [23]: 10 % of wild-type H77
- e20 binding activity (% of wild-type H77) [24]: 70 % of wild-type H77
- e20 binding activity (% of wild-type H77) [25]: 68 % of wild-type H77
- e20 binding activity (% of wild-type H77) [26]: 72 % of wild-type H77
- e20 binding activity (% of wild-type H77) [27]: 97 % of wild-type H77
- e20 binding activity (% of wild-type H77) [28]: 98 % of wild-type H77
- e20 binding activity (% of wild-type H77) [29]: 96 % of wild-type H77
- e20 binding activity (% of wild-type H77) [30]: 94 % of wild-type H77
